Assay results published in paper PMC8897410.

What was measured:
[1] = biological target: T1, FimT Lp (Legionella pneumophila, UniProt Q5ZVL2 38-162); assay: ITC; 50 mM NaCl, 30 C; N 1.09; 50 mM Tris-HCl pH 7.2, 50 mM NaCl; […]; ITC 30 C; MST 50-150 mM NaCl, 0.05% Tween-20, […]; details: protein: recombinant; tags: His6-SUMO cleaved
[2] = biological target: T1, FimT Lp; assay: EMSA; 50 mM Tris-HCl pH 7.2, 50 mM NaCl; […]; ITC 30 C; MST 50-150 mM NaCl, 0.05% Tween-20, […]; details: protein: recombinant; tags: His6-SUMO cleaved
[3] = biological target: FimU Lp (Legionella pneumophila, UniProt Q5ZXU9 96-235); assay: EMSA; up to 100 uM protein; 50 mM Tris-HCl pH 7.2, 50 mM NaCl; […]; ITC 30 C; MST 50-150 mM NaCl, 0.05% Tween-20, […]; details: protein: recombinant; tags: His6-SUMO cleaved; blunt
[4] = biological target: PilA1 Lp (Legionella pneumophila, UniProt Q5ZU93 35-142); assay: as above; details: protein: recombinant; tags: His6 cleaved (PreScission); blunt
[5] = biological target: PilA2 Lp (Legionella pneumophila, UniProt Q5ZU92 34-140); assay: as above; details: protein: recombinant; tags: His6 cleaved (PreScission); blunt
[6] = biological target: T1, FimT Lp; assay: EMSA; Kd stated as low uM range; 50 mM Tris-HCl pH 7.2, 50 mM NaCl; […]; ITC 30 C; MST 50-150 mM NaCl, 0.05% Tween-20, […]; details: protein: recombinant; tags: His6-SUMO cleaved; blunt
[7] = biological target: FimT Pa (Pseudomonas aeruginosa PAO1, UniProt Q9HVN0 36-169); assay: EMSA; affinity same order of magnitude as FimT Lp; 50 mM Tris-HCl pH 7.2, 50 mM NaCl; […]; ITC 30 C; MST 50-150 mM NaCl, 0.05% Tween-20, […]; details: protein: recombinant; tags: His6-SUMO cleaved; blunt
[8] = biological target: FimT Xc (Xanthomonas campestris pv. campestris …, UniProt Q8P7X0 39-183); assay: as above; details: protein: recombinant; tags: His6-SUMO cleaved; blunt
[9] = biological target: T1, FimT Lp; assay: MST/TRIC; 50 mM NaCl; 50 mM Tris-HCl pH 7.2, 50 mM NaCl; […]; ITC 30 C; MST 50-150 mM NaCl, 0.05% Tween-20, […]; details: protein: recombinant; tags: His6-SUMO cleaved; label: 5'-FAM on one strand; blunt
[10] = biological target: T1, FimT Lp; assay: ITC; 50 mM Tris-HCl pH 7.2, 50 mM NaCl; […]; ITC 30 C; MST 50-150 mM NaCl, 0.05% Tween-20, […]; details: protein: recombinant; tags: His6-SUMO cleaved; blunt
[11] = biological target: T1, FimT Lp; assay: NMR titration; 50 mM NaCl; 50 mM Tris-HCl pH 7.2, 50 mM NaCl; […]; ITC 30 C; MST 50-150 mM NaCl, 0.05% Tween-20, […]; details: protein: recombinant; tags: His6-SUMO cleaved; blunt

GTTCGCAACGAA (ssDNA) [12mer ssDNA]
Kd [1]: 7 ± 0.3 µM

TTAAATAGGCTTGGCAGGGTTAGGGTAGGG (ssDNA) [30mer ssDNA]
binding result [2]: binds

B1: 30mer dsDNA (dsDNA)
DNA 1: TTAAATAGGCTTGGCAGGGTTAGGGTAGGG
DNA 2: CCCTACCCTAACCCTGCCAAGCCTATTTAA
binding result [3]: no binding | binding result [4]: no binding | binding result [5]: no binding | binding result [6]: binds | binding result [7]: binds | binding result [8]: binds

B2: FAM-12mer dsDNA (dsDNA)
DNA 1: GTTCGCAACGAA
DNA 2: TTCGTTGCGAAC
Kd [9]: 6.3 ± 0.9 µM

B3: 12mer dsDNA (dsDNA)
DNA 1: GTTCGCAACGAA
DNA 2: TTCGTTGCGAAC
Kd [10]: 2.8 ± 0.2 µM | Kd [11]: ~8.1 µM
